Biological target: GATOR2 purified from HEK293T cells (UniProt Q9NXC5 1-875; Q6PJI9 1-974; Q96S15 1-790; Q96EE3 1-360; P55735 1-322)
Test: pull-down

binding result: binds
B1: GST-Sesn2 (natural protein, UniProt P58004 1-480, looked up)
chain: MIVADSECRAELKDYLRFAPGGVGDSGPGEEQRESRARRGPRGPSAFIPVEEVLREGAESLEQHLGLEALMSSGRVDNLAVVMGLHPDYFTSFWRLHYLLLHTDGPLASSWRHYIAIMAAARHQCSYLVGSHMAEFLQTGGDPEWLLGLHRAPEKLRKLSEINKLLAHRPWLITKEHIQALLKTGEHTWSLAELIQALVLLTHCHSLSSFVFGCGILPEGDADGSPAPQAPTPPSEQSSPPSRDPLNNSGGFESARDVEALMERMQQLQESLLRDEGTSQEEMESRFELEKSESLLVTPSADILEPSPHPDMLCFVEDPTFGYEDFTRRGAQAPPTFRAQDYTWEDHGYSLIQRLYPEGGQLLDEKFQAAYSLTYNTIAMHSGVDTSVLRRAIWNYIHCVFGIRYDDYDYGEVNQLLERNLKVYIKTVACYPEKTTRRMYNLFWRHFRHSEKVHVNLLLLEARMQAALLYALRAITRYMT

From publication PMC4303546 (Cell reports, 2014)
